# How the values were obtained:
# physchem = format: physicochemical; conditions: pH 7.4
# Procedure: Lipophilicity of the HPLC-purified radiopeptide analogs was determined through octanol/water partition coefficients, determined at pH 7.4 by measuring the distribution of the HPLC purified radiolabeled peptides in 1-octanol and PBS. Then, 50 μL HPLC purified ^99mTc-BN1/^99mTc-BN2/^99mTc-BN3/^99mTc-BN4/^99mTc-BNS with 100 μCi of radiolabeled compound in PBS was added to a to a centrifuge tube containing 1 mL n-octanol and 1 mL PBS (0.025 M, pH 7.4). The tube was vortexed at room temperature for 2 min and they are centrifuged at 5000 rpm for 5 min to ensure complete separation of layers. Further, 100 μL of each phase was transferred into a separate pre-weighed vial and measured in the well γ-counter. The ratio of octanol layer counts to aqueous layer counts was expressed as the distribution coefficient (D, the appropriate descriptor for ionizable compounds) and logD was used for determination of lipophilicity. Counts per unit weight of the sample were calculated, and logD value as calculated as follows:
# log10D = log10 [(cpm in octanol – cpm in background) / (cpm in buffer – cpm in background)]
# in vitro = in vitro ADME; conditions: rat
# Procedure: An aliquot (100 μL) of ^99mTc-BN1/^99mTc-BN2/^99mTc-BN3/^99mTc-BN4/^99mTc-BNS was added to 1 mL of freshly collected rat serum in centrifuge tube. The mixture was then incubated at 37 °C for 1 h; the serum protein was precipitated by adding 1 mL trichloroacetic acid (10%, V/V). The supernatant and precipitate were separated by centrifugation at 3000 rpm for 5 min. Radioactivities of both the phases were measured separately. The above experimental procedure was repeated three times. The percentage of protein binding was determined as: Plasma protein binding % = (precipitate counts (CPM) / [precipitate counts (CPM) + plasma counts (CPM)]) × 100%.
# [1] = tested on: MDA-MB-231 tumor-bearing mice; test: In vivo biodistribution; parameters: species or system mouse; conditions: mean ± SD, n = 3; for Tumor uptake: MDA-MB-231 tumor
# Procedure: All animal experiments were done according to the CSIR-IICB Animal Ethics Committee’s rules and regulation. Forty-eight hours before tumor cell implantation, an immunosuppressive drug (cyclosporine-A) was given intraperitoneal (i.p) at a concentration of 30 mg/kg/day. After that, MDA-MB-231 cells (5 × 10^6) 0.2 mL were implanted subcutaneously into the left flanks of the hind leg of BALB/c mice. Thereafter, the same dose of cyclosporine was given i.p. daily up to 2 weeks. Two weeks after inoculation of the tumor cells, when tumors reached ~ 0.5 cm in mean diameter, the tumor-bearing mice were used for biodistribution and imaging studies. Animals were monitored daily and their weights were recorded. Control group of mice received only 0.9 wt% saline. After cell implantation, the growth rate of the breast tumor followed a satisfactory pattern of spheroid shape and tumors are palpable within 2 to 4 weeks. MDA-MB-231 cell implanted mice tumor models were used for biodistribution and planar imaging studies of these radiolabeled new bombesin analogs.
# In tissue biodistribution studies, tumor-bearing animals were divided into four groups and well hydrated for 1 h by intraperitoneal administration of saline (0.9%, 2 mL). Three animals per groups were used for biodistribution studies. After that, the radiolabeled new bombesin analogs (^99mTc-BN) were injected intravenously in each animal of each group consequently through the tail vein [24–27]. After 5, 30, 60, and 120 min intravenous administrations of radiolabeled analogs, the animals were sacrificed; blood, heart, lung, liver, kidney, stomach, intestine, spleen, pancreas, brain, muscle, and tumor were excised, weighed, and counted for radioactivity. The organ uptake was calculated as a percentage of the injected activity per gram of wet tissue (%IA/g). In order to evaluate whether binding of bombesin analogs to MDA-MB-231 cells in vivo is specific; blocking studies with ^99mTc-labeled bombesin analogs in tumor-bearing mice were carried out. Groups of three animals were injected 0.03 nmol of ^99mTc-labeled BN analogs (2 MBq) with 25 nmol of non-radiolabeled BN peptide. After 60 min and 120 min, mice were sacrificed and the organs were collected. Each organ was weighed and counted in a gamma counter along with activity standard and percentage of injected activity per gram (%IA/g) of tissue was calculated for each type of tissues. Counts were corrected for background radiation and physical decay of the radioactivity. The uptake was expressed in the percentage of injected activity per gram of each organ (%IA/g). Data were analyzed statistically by the t test, with the level of significance set at P < 0.05.
# [2] = 60 min p.i., blocked with excess non-radiolabeled BN peptide
substance,measurement,setting,value
^99mTc-HYNIC-Asp-[Phe^13Nle^14]BN(7-14)NH2 [99mTc-BN1],logD,physchem,− 1.85 ± 0.05
same,Percentage of plasma protein binding,in vitro,45.00%
same,Tumor uptake,"[1]; 5 min p.i., i.v.",0.78 ± 0.03 %IA/g
same,Blood uptake,"[1]; 5 min p.i., i.v.",1.32 ± 0.07 %IA/g
same,Heart uptake,"[1]; 5 min p.i., i.v.",1.02 ± 0.05 %IA/g
same,Intestine uptake,"[1]; 5 min p.i., i.v.",1.06 ± 0.05 %IA/g
same,Kidney uptake,"[1]; 5 min p.i., i.v.",2.12 ± 0.10 %IA/g
same,Liver uptake,"[1]; 5 min p.i., i.v.",0.85 ± 0.04 %IA/g
same,Lung uptake,"[1]; 5 min p.i., i.v.",0.95 ± 0.04 %IA/g
same,Muscle uptake,"[1]; 5 min p.i., i.v.",0.22 ± 0.02 %IA/g
same,Pancreas uptake,"[1]; 5 min p.i., i.v.",2.58 ± 0.12 %IA/g
same,Spleen uptake,"[1]; 5 min p.i., i.v.",0.94 ± 0.04 %IA/g
same,Stomach uptake,"[1]; 5 min p.i., i.v.",0.42 ± 0.02 %IA/g
same,Urine + urinary bladder uptake,"[1]; 5 min p.i., i.v.",0.81 ± 0.04 %IA/g
same,Tumor uptake,"[1]; 30 min p.i., i.v.",2.51 ± 0.12 %IA/g
same,Blood uptake,"[1]; 30 min p.i., i.v.",0.89 ± 0.04 %IA/g
same,Heart uptake,"[1]; 30 min p.i., i.v.",0.81 ± 0.04 %IA/g
same,Intestine uptake,"[1]; 30 min p.i., i.v.",1.36 ± 0.06 %IA/g
same,Kidney uptake,"[1]; 30 min p.i., i.v.",4.12 ± 0.20 %IA/g
same,Liver uptake,"[1]; 30 min p.i., i.v.",0.69 ± 0.03 %IA/g
same,Lung uptake,"[1]; 30 min p.i., i.v.",0.77 ± 0.03 %IA/g
same,Muscle uptake,"[1]; 30 min p.i., i.v.",0.27 ± 0.01 %IA/g
same,Pancreas uptake,"[1]; 30 min p.i., i.v.",1.79 ± 0.08 %IA/g
same,Spleen uptake,"[1]; 30 min p.i., i.v.",0.51 ± 0.02 %IA/g
same,Stomach uptake,"[1]; 30 min p.i., i.v.",0.85 ± 0.04 %IA/g
same,Urine + urinary bladder uptake,"[1]; 30 min p.i., i.v.",2.85 ± 0.01 %IA/g
same,Tumor uptake,[1]; [2],1.20 ± 0.03 %IA/g
same,Blood uptake,[1]; [2],0.34 ± 0.01 %IA/g
same,Heart uptake,[1]; [2],0.44 ± 0.01 %IA/g
same,Intestine uptake,[1]; [2],1.44 ± 0.05 %IA/g
same,Kidney uptake,[1]; [2],3.10 ± 0.02 %IA/g
same,Liver uptake,[1]; [2],0.55 ± 0.03 %IA/g
same,Lung uptake,[1]; [2],0.57 ± 0.02 %IA/g
same,Muscle uptake,[1]; [2],0.16 ± 0.02 %IA/g
same,Pancreas uptake,[1]; [2],0.91 ± 0.04 %IA/g
same,Spleen uptake,[1]; [2],0.35 ± 0.01 %IA/g
same,Stomach uptake,[1]; [2],0.40 ± 0.02 %IA/g
same,Urine + urinary bladder uptake,[1]; [2],3.56 ± 0.02 %IA/g
same,Tumor uptake,"[1]; 60 min p.i., i.v.",1.85 ± 0.09 %IA/g
same,Blood uptake,"[1]; 60 min p.i., i.v.",0.32 ± 0.01 %IA/g
same,Heart uptake,"[1]; 60 min p.i., i.v.",0.47 ± 0.02 %IA/g
same,Intestine uptake,"[1]; 60 min p.i., i.v.",1.70 ± 0.08 %IA/g
same,Kidney uptake,"[1]; 60 min p.i., i.v.",3.15 ± 0.15 %IA/g
same,Liver uptake,"[1]; 60 min p.i., i.v.",0.56 ± 0.02 %IA/g
same,Lung uptake,"[1]; 60 min p.i., i.v.",0.56 ± 0.02 %IA/g
same,Muscle uptake,"[1]; 60 min p.i., i.v.",0.14 ± 0.01 %IA/g
same,Pancreas uptake,"[1]; 60 min p.i., i.v.",1.11 ± 0.05 %IA/g
same,Spleen uptake,"[1]; 60 min p.i., i.v.",0.32 ± 0.01 %IA/g
same,Stomach uptake,"[1]; 60 min p.i., i.v.",0.56 ± 0.02 %IA/g
same,Urine + urinary bladder uptake,"[1]; 60 min p.i., i.v.",3.50 ± 0.15 %IA/g
same,Tumor uptake,"[1]; 120 min p.i., i.v.",1.56 ± 0.07 %IA/g
same,Blood uptake,"[1]; 120 min p.i., i.v.",0.05 ± 0.01 %IA/g
same,Heart uptake,"[1]; 120 min p.i., i.v.",0.17 ± 0.01 %IA/g
same,Intestine uptake,"[1]; 120 min p.i., i.v.",1.10 ± 0.05 %IA/g
same,Kidney uptake,"[1]; 120 min p.i., i.v.",1.56 ± 0.07 %IA/g
same,Liver uptake,"[1]; 120 min p.i., i.v.",0.32 ± 0.01 %IA/g
same,Lung uptake,"[1]; 120 min p.i., i.v.",0.32 ± 0.01 %IA/g
same,Muscle uptake,"[1]; 120 min p.i., i.v.",0.09 ± 0.02 %IA/g
same,Pancreas uptake,"[1]; 120 min p.i., i.v.",0.69 ± 0.03 %IA/g
same,Spleen uptake,"[1]; 120 min p.i., i.v.",0.26 ± 0.03 %IA/g
same,Stomach uptake,"[1]; 120 min p.i., i.v.",0.35 ± 0.01 %IA/g
same,Urine + urinary bladder uptake,"[1]; 120 min p.i., i.v.",4.79 ± 0.12 %IA/g
